The record followed here is patent publication US20250270339A1.

Numbering of substitutions follows the chain as printed. In names and notes the source's numbering stands.

The target in assay [1] is Cyno TfR apical permuted N-term Avi-His (cynomolgus). Briefly: SPR (Carterra LSA), 2+2 captured.
Assay [2] deals with huTfR Apical Domain-Avi-His (human). Briefly: SPR (Carterra LSA), 2+2 captured.
Sequence of huTfR Apical Domain-Avi-His (human) (chain, as listed by the source limits assumed): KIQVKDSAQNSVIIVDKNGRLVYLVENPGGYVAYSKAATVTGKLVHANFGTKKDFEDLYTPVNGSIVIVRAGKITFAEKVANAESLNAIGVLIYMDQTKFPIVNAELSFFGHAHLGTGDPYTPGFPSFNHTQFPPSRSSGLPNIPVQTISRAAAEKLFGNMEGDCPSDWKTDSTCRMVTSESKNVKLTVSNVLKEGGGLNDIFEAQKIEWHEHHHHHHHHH

Sequence of Cyno TfR apical permuted N-term Avi-His (cynomolgus) (chain, as listed by the source limits assumed): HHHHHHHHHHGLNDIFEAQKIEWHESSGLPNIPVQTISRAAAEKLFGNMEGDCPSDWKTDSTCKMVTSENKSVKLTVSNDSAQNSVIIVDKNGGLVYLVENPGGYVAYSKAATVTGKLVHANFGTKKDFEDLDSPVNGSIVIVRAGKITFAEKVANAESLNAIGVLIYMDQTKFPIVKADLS

B1: TFR.15.WH8.1.42A.LH 2+2 anti-TfR bispecific antibody (bispecific antibody, part only; not given: isotype IgG backbone and linker, not shown: another chain or arm of the molecule; a dimerising Fc or GST; large carriers; small tags and cut ends)
scFv: EIVLTQSPATLSLSPGERATLSCRASSSIRAMNWYQQKPGQAPRRLIYDTSNRATGIPARFSGSGSGTDFTLTISSLEPEDFAVYYCHQRSSYPWTFGGGTKVEIKGGSEGKSSGSGSESKSTGGSQVQLVQSGAEVKKPGASVKVSCKASGYTFTSYYMHWVRQAPGQGLEWMGNIYPGSGSSNYAQKFQGRVTMTRDTSTSTVYMELSSLRSEDTAVYYCTRSSYYGNFDTMDNWGQGTTVTVSS
With B1, the Kd turned out to be 60 nM in assay [1] and 190 nM in assay [2].

B2: TFR.15.WH8.1.42A.L1 2+2 anti-TfR bispecific antibody (bispecific antibody, part only; not given: isotype IgG backbone and linker, not shown: another chain or arm of the molecule; a dimerising Fc or GST; large carriers; small tags and cut ends)
scFv: QVQLVQSGAEVKKPGASVKVSCKASGYTFTSYYMHWVRQAPGQGLEWMGNIYPGSGSSNYAQKFQGRVTMTRDTSTSTVYMELSSLRSEDTAVYYCTRSSYYGNFDTMDNWGQGTTVTVSSSPNSASHSGSAPQTSSAPGSQEIVLTQSPATLSLSPGERATLSCRASSSIRAMNWYQQKPGQAPRRLIYDTSNRATGIPARFSGSGSGTDFTLTISSLEPEDFAVYYCHQRSSYPWTFGGGTKVEIK
Consider B2, for which the values for the Kd in assay [1] and in assay [2] were 100 nM and 150 nM, respectively.

B3: TFR.15.WH8.1 2+2 anti-TfR bispecific antibody (bispecific antibody, part only; not given: isotype IgG backbone and linker, not shown: another chain or arm of the molecule; a dimerising Fc or GST; large carriers; small tags and cut ends)
scFv: QVQLVQSGAEVKKPGASVKVSCKASGYTFTSYYMHWVRQAPGQGLEWMGNIYPGSGSSNYAQKFQGRVTMTRDTSTSTVYMELSSLRSEDTAVYYCTRSSYYGNFDTMDNWGQGTTVTVSSGGSEGKSSGSGSESKSTGGSEIVLTQSPATLSLSPGERATLSCRASSSIRYMNWYQQKPGQAPRRLIYDTSNRATGIPARFSGSGSGTDFTLTISSLEPEDFAVYYCHQRSSYPWTFGGGTKVEIK
With B3, the Kd was found to be 17 nM in assay [1] and 28 nM in assay [2].

B4: TFR.15.WH8.1.24H 2+2 anti-TfR bispecific antibody (bispecific antibody, part only; not given: isotype IgG backbone and linker, not shown: another chain or arm of the molecule; a dimerising Fc or GST; large carriers; small tags and cut ends)
scFv: B3 scFv with S100H
With B4, the dissociation constant Kd came out at 2.6 nM in assay [1] and 5.6 nM in assay [2].

B5: TFR.15.WH8.1.26H 2+2 anti-TfR bispecific antibody (bispecific antibody, part only; not given: isotype IgG backbone and linker, not shown: another chain or arm of the molecule; a dimerising Fc or GST; large carriers; small tags and cut ends)
scFv: B3 scFv with Y102H
On to B5, for which the Kd in assay [1] came to 2200 nM; in assay [2] it was 280 nM.

B6: TFR.15.WH8.1.24N 2+2 anti-TfR bispecific antibody (bispecific antibody, part only; not given: isotype IgG backbone and linker, not shown: another chain or arm of the molecule; a dimerising Fc or GST; large carriers; small tags and cut ends)
scFv: B3 scFv with S100N
With B6, the equilibrium dissociation constant (Kd) came out at 47 nM in assay [1] and 140 nM in assay [2].

B7: TFR.15.WH8.1.42A 2+2 anti-TfR bispecific antibody (bispecific antibody, part only; not given: isotype IgG backbone and linker, not shown: another chain or arm of the molecule; a dimerising Fc or GST; large carriers; small tags and cut ends)
scFv: B3 scFv with Y172A
For the molecule B7, the dissociation constant (Kd) worked out at 88 nM in assay [1] and 160 nM in assay [2].

B8: TFR.15.WH8.1.42Q 2+2 anti-TfR bispecific antibody (bispecific antibody, part only; not given: isotype IgG backbone and linker, not shown: another chain or arm of the molecule; a dimerising Fc or GST; large carriers; small tags and cut ends)
scFv: B3 scFv with Y172Q
B8: the values for the Kd in assay [1] and in assay [2] were 40 nM and 62 nM, respectively.

B9: TFR.15.WH8.1.42S 2+2 anti-TfR bispecific antibody (bispecific antibody, part only; not given: isotype IgG backbone and linker, not shown: another chain or arm of the molecule; a dimerising Fc or GST; large carriers; small tags and cut ends)
scFv: B3 scFv with Y172S
With B9, the Kd in assay [1] was found to be 690 nM; in assay [2], 510 nM.

B10: TFR.15.WH8.1.42A.3x(G4S) 2+2 anti-TfR bispecific antibody (bispecific antibody, part only; not given: isotype IgG backbone and linker, not shown: another chain or arm of the molecule; a dimerising Fc or GST; large carriers; small tags and cut ends)
scFv: QVQLVQSGAEVKKPGASVKVSCKASGYTFTSYYMHWVRQAPGQGLEWMGNIYPGSGSSNYAQKFQGRVTMTRDTSTSTVYMELSSLRSEDTAVYYCTRSSYYGNFDTMDNWGQGTTVTVSSGGGGSGGGGSGGGGSEIVLTQSPATLSLSPGERATLSCRASSSIRAMNWYQQKPGQAPRRLIYDTSNRATGIPARFSGSGSGTDFTLTISSLEPEDFAVYYCHQRSSYPWTFGGGTKVEIK
Regarding B10, the Kd in assay [1] turned out to be 74 nM.
